The values that follow come from patent publication US20070100561.

Series [1] concerns the target enzymatically deglycosylated soluble extracellular domain of human DPP-IV (sDPP-IVdeglycos).
For series [2], the target named is enzymatically deglycosylated soluble extracellular domain of human dipeptidyl peptidase IV (sDPP-IVdeglycos; residues 31-766).
enzymatically deglycosylated soluble extracellular domain of human dipeptidyl peptidase IV (sDPP-IVdeglycos; residues 31-766), sequence (chain, as listed by the source): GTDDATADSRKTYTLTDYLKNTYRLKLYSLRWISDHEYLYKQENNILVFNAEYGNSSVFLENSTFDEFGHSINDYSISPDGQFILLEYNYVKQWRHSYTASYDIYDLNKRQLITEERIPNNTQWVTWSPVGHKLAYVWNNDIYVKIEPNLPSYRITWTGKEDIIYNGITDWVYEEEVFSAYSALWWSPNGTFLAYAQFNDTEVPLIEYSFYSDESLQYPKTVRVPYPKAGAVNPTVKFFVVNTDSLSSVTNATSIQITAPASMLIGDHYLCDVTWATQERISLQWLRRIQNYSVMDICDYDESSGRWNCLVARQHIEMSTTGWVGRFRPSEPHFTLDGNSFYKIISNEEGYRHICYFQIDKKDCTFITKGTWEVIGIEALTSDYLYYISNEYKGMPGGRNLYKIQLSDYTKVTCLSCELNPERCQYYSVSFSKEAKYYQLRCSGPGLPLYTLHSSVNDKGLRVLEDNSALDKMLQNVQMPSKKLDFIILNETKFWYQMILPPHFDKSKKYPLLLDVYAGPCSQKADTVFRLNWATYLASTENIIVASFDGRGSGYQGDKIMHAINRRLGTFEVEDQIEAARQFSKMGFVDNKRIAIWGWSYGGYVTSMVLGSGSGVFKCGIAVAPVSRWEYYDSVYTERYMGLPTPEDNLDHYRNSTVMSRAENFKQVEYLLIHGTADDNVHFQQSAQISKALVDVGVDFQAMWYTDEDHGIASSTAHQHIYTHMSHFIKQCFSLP

enzymatically deglycosylated soluble extracellular domain of human DPP-IV (sDPP-IVdeglycos), sequence (chain, as listed by the source): as above

B1: adenosine deaminase (ADA; Sigma Type IV, from calf intestinal mucosa) (protein)
chain: AQTPAFNKPKVELHVHLDGAIKPETILYYGRKRGIALPADTPEELQNIIGMDKPLSLPEFLAKFDYYMPAIAGCREAVKRIAYEFVEMKAKDGVVYVEVRYSPHLLANSKVEPIPWNQAEGDLTPDEVVSLVNQGLQEGERDFGVKVRSILCCMRHQPSWSSEVVELCKKYREQTVVAIDLAGDETIEGSSLFPGHVKAYAEAVKSGVHRTVHAGEVGSANVVKEAVDTLKTERLGHGYHTLEDATLYNRLRQENMHFEVCPWSSYLTGAWKPDTEHPVVRFKNDQVNYSLNTDDPLIFKSTLDTDYQMTKNEMGFTEEEFKRLNINAAKSSFLPEDEKKELLDLLYKAYGMPSPA
For the protein B1, in series [1], the KM (enzyme activity of DPP-IV in the complex with ADA) was 14.8 µM, the kcat (enzyme activity of DPP-IV in the complex with ADA) was 39.6 s⁻¹ and the kcat/KM (enzyme activity of DPP-IV in the complex with ADA) was found to be 2.68e+06 M⁻¹ s⁻¹. For the same protein, the DPP-IV activity result in series [2] was “confirming the independence of DPP-IV activity on ADA binding”.
